Results reported in patent US20250115655A1, “PHARMACEUTICALS AND DEVICES FOR THE COVALENT IMMOBILIZATION TO THE EXTRACELLULAR MATRIX BY TRANSGLUTAMINASE” (JULIUS-MAXIMILIANS-UNIVERSITÄT WÜRZBURG, priority 2017, published 2025).
Entries after “also recorded” stand apart in the source; their conditions may differ.

Assays:
fibronectin = assay: Immobilization of native IGF-I on fibroblast derived isolated ECM and soluble fibronectin in presence of Factor XIIIa; format: biochemical; conditions: 37° C., 10 min, antibody staining (FIG. 6A)
Experimental: (§1) To test this strategy, native IGF-I was immobilized onto fibroblast derived, isolated extracellular matrix in presence of Factor XIIIa (FIGS. 6A-6B). […] The transamidation reaction was carried out at 37° C. for 10 min in Tris buffer at pH 7.6 and is suitable for performance under physiological conditions. […] Bioactivity of immobilized IGF-I was confirmed by promoting cell proliferation of mouse myoblast cells (FIGS. 7A-7B).
FIGS. 6A-6B: (6A) Confocal laser scanning microscopy images of IGF-I immobilized on isolated ECM. The immobilized IGF-I was visualized with a monoclonal IGF-I antibody (green) und co-localized with fibronectin (red). (6B) Western Blot of human IGF-I after incubation with fibronectin in presence (lane 1) and absence (lane 2) of factor XIIIa with unreacted IGF-I as control (lane 3).

C2C12 myoblasts = assay: Bioactivity of ECM-immobilized IGF-I: C2C12 myoblast proliferation (WST-1); format: cell-based; conditions: mouse myoblast cells, 48 hours
Experimental: as §1
FIGS. 7A-7B: Bioactivity of ECM-immobilized IGF-I. (7A) Native IGF-I was coupled to ECM in presence/absence of factor XIIIa, followed by seeding of C2C12 myoblasts on this naturally derived matrix and cell proliferation was measured after 48 hours incubation using WST-1 (Data are shown as mean±STDEV, n=3; ** p<0.01). (7B) The cells were fixed, stained with actin (green) and DAPI (cell nuclei, blue) and ECM-immobilized IGF-I was visualized using a monoclonal IGF-I antibody (red).

Factor XIIIa = molecular target: T1, Factor XIIIa (Homo sapiens, UniProt P00488); assay: FXIIIa-mediated coupling of IGF-I to linker containing the glutamine substrate sequence (SDS-PAGE, western blot, HPLC kinetics); format: biochemical
T1 construct: purchased Fibrogammin®
T1 sequence (P00488 39-732 limits assumed): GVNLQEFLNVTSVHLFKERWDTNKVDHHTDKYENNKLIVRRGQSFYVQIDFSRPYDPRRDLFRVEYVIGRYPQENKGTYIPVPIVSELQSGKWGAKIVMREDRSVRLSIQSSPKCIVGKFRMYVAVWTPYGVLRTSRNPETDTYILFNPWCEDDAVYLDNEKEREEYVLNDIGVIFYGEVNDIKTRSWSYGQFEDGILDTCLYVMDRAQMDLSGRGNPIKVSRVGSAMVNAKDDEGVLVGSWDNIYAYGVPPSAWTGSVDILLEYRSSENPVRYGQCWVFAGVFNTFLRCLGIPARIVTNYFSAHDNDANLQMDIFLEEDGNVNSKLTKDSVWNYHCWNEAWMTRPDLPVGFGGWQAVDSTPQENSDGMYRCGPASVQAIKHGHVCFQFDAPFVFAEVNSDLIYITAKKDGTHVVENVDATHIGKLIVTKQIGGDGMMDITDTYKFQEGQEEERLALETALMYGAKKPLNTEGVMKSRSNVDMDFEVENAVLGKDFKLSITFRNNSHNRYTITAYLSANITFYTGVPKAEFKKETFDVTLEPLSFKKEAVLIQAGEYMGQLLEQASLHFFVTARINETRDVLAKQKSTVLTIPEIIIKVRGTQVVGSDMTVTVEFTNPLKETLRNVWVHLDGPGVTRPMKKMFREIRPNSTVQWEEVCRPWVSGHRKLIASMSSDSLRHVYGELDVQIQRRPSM
Experimental: The specificity and efficiency of the reaction was analyzed and compared to the isolated D domain (SEQ ID NO: 1) using a linker containing the glutamine substrate sequence derived from α-2 plasmin inhibitor and analyzed by SDS-PAGE and by western blotting using a monoclonal anti-IGF-I antibody (FIG. 4A). The transamidation was carried out at 37° C. for 5 min in Tris buffer (20 mM Tris-HCL, 150 mM sodium chloride, pH 7.6) with 0.1 M calcium chloride in presence of factor XIIIa (Fibrogammin®, activated with 0.02 U/ml thrombin). The resulting conjugate was analyzed by MALDI-MS and the site-specific conjugation confirmed. […] FIGS. 4A-4B: (4A) SDS PAGE and immunoblotting of human IGF-I after incubation with the glutamine substrate peptide modelled from the N-terminus of alpha-2 plasmin inhibitor (SEQ ID NO: 11) attached to a protease cleavable linker (PCL) in absence and presence of FXIIIa. (4B) HPLC analysis of IGF-I coupling kinetics mediated by […].

[1] = doses of 0.12 mg/kg, subcutaneous injection; cited from earlier work

crosslinking of the complete protein, reaction kinetics by HPLC (Factor XIIIa; 37° C., Tris buffer pH 7.6 (FIG. 4B)) | kinetics of the coupling reaction (Factor XIIIa; human factor XIIIa) [min] | Substance | co-localization with fibronectin after conjugation to the ECM (fibronectin) | bioactivity of immobilized IGF-I (cell proliferation) (C2C12 myoblasts) | half-life [1] [h]
exceptionally fast and efficient | < 2 | IGF-I: Human IGF-I, peptide hormone of 7.6 kDa, 70 amino acids | confirmed the co-localization with fibronectin | confirmed; also recorded: preserved | 
 |  | Mecasermin: Recombinant human IGF-I |  |  | 5.8
